Patent publication US20210324028A1
Changes are numbered by the printed parent chain.

B1: Isotype control--IL15 M1 (protein, part only; not given: Isotype control antibody chains and linker, part only)
heavy, part: AWVNVISDLKKIEDLIQSMHIDATLYTESNVHPSCKVTAMKCFLLGLQRISLESGDASIHDTVENLIILANNSLSSNGNVTESGCKECEELEEKNIKEFLQSFVHIVQMFINTS
B2: Isotype control--IL15 M2 (protein, part only; not given: Isotype control antibody chains and linker, part only)
heavy, part: B1 heavy, part with A1G, E64Q

Biological target: human CD122/CD132 on cells of human PBMCs (human) (UniProt P14784)
Test: cell-based or functional assay

human CD122/CD132 on cells of human PBMCs (human), sequence (P14784 27-551, chain 1 of 2): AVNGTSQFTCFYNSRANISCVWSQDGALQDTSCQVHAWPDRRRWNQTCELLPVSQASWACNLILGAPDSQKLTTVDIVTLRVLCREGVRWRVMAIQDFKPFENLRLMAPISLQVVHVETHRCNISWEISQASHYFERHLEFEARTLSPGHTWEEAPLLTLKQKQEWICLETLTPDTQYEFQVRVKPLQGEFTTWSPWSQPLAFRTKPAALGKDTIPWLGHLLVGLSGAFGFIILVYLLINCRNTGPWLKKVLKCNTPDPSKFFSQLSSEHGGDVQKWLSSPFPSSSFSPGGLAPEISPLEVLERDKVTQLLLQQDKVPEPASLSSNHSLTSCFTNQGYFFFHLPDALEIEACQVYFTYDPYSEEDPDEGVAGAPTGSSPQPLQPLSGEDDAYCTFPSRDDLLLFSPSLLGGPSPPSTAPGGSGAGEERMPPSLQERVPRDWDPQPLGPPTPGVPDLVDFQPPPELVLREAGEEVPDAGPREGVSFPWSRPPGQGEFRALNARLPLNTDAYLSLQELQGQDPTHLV
human CD122/CD132 on cells of human PBMCs (human), sequence (P31785 23-369, chain 2 of 2, further chain): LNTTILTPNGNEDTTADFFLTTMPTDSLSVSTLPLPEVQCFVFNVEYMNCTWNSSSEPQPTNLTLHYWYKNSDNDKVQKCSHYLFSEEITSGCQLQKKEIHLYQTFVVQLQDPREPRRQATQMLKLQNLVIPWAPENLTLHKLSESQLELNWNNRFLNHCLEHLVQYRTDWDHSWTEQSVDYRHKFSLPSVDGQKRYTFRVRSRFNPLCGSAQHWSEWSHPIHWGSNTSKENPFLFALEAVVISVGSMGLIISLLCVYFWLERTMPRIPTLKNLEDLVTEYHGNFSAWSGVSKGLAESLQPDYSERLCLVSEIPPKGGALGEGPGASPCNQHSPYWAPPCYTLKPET

| Binder | pSTAT5 EC50 on human CD8+cm T cells (hPBMC) [nM] | pSTAT5 EC50 on human NK cells (hPBMC) [nM] |
| --- | --- | --- |
| B1 | 3.67 | 0.946 |
| B2 | 37.6 | 11.2 |
